{"source": "patent US20140356364A1", "about": "(AMPLIMMUNE, published 2014)", "key": {"[1]": {"molecular_target": "T1, Human B7-H4 protein antigen (coated on ELISA plates) (human, UniProt Q7Z7D3 25-259, limits assumed)", "T1 construct": "also called B7-H4 antigen; human B7-H4 antigen", "T1 sequence": "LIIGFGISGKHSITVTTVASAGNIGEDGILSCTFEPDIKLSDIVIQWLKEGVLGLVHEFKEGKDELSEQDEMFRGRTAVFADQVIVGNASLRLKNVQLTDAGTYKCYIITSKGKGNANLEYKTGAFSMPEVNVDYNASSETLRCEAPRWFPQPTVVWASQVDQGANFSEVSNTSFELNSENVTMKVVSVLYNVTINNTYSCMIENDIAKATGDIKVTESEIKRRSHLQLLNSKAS", "experiment": "ELISA, conditioned medium on coated human B7-H4 antigen, anti-Fc-HRP/TMB"}, "[2]": {"molecular_target": "T2, B7-DChIg construct (extracellular domain of human DC linked to the hinge and Fc region of a human IgG1) (human, UniProt Q9BQ51 20-220)", "T2 construct": "extracellular domain; Specificity control antigen in the plate-based assay; not shown: human IgG1 hinge and Fc region", "T2 sequence (looked up)": "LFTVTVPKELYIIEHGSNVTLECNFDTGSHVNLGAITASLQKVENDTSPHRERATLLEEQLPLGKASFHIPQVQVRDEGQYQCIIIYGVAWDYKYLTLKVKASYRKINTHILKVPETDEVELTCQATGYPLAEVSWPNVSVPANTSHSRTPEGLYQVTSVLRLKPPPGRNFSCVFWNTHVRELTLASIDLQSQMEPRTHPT", "experiment": "plate-based ELISA, hybridoma supernatant on coated B7-DChIg", "experimental": "(§1) Serial dilutions were made from H74 (a commercially available anti-B7-H4 antibody), 2D1, 2E11 and 2H9 stock solutions and added to 96-well ELISA plates coated with B7-H4hIg or B7-DChIg. After incubation and wash, horseradish peroxidase (HRP) conjugated anti-mouse IgG antibody was added to the plates. After incubation and wash, 3,3′,5,5′-Tetramethylbenzidine (TMB) substrate was added. The colorimetric development was stopped by H₂SO₄ stop solution and read with a plate reader measuring absorbance at a 450 nm wavelength.\n(§2) A plate-based binding assay using the B7-H4hIg construct was employed to capture the elicited antibody; antibodies were then characterized as being either IgG or IgM. As a specificity control, antibodies were also subjected to capture with a B7-DChIg construct (comprising the extracellular domain (ECD) of human DC linked to the hinge and Fc region of a human IgG1) (“B7-DChIg”) and the extent of IgG capable of binding was measured."}, "[3]": {"molecular_target": "T1, Human B7-H4 protein antigen (coated on …)", "experiment": "ELISA, conditioned medium on coated human B7-H4 antigen, anti-Fc-HRP, OD650", "experimental": "Human B7-H4 protein antigen and control antigen were coated onto 96-well ELISA plates. The plates are then blocked with 3% BSA, and washed in PBS.\nThe conditioned media (4 days post transfection) were then tested for antigen binding in the 96-well ELISA. Anti-Fc-HRP was used as the detecting antibody. Plates were washed with PBS, and TMB (3,3′,5,5′-tetramethylbenzidine) was added for HRP color reaction. Once color developed, the OD₆₅₀ in each well was determined on an absorbance microplate reader."}, "[4]": {"molecular_target": "T3, human B7-H4 expressed on the surface of stably transfected HEK293 cells (human, UniProt Q7Z7D3 25-282)", "T3 construct": "also called 293T.B7-H4 cells; human B7-H4 arrayed on the surface of a live cell", "T3 sequence": "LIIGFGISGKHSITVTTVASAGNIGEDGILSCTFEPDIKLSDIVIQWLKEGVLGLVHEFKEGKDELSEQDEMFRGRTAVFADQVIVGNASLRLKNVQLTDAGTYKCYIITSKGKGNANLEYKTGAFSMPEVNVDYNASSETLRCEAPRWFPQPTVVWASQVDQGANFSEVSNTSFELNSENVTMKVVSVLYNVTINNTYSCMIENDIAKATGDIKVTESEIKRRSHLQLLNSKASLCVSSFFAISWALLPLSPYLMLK", "experiment": "flow cytometry, hybridoma supernatant on HEK293 cells expressing human B7-H4, APC anti-mouse detection", "experimental": "Antibodies 2D1, 2E11 and 2H9 were used either un-diluted (Neat), or diluted at 1:3, 1:9 and 1:27, to stain 293T.B7-H4 cells. For binding detection, APC labeled anti-mouse IgG antibody was utilized followed by FACS analysis of APC positive cells. H74 (a commercially available anti-B7-H4 antibody) at 1 μg/mL was used as positive control. Negative control was 1 μg/mL of mIgG1. 293T.B7-H4 cells incubated with APC labeled anti-mouse IgG antibody (DAM APC only), and parent 293 T cells stained with un-diluted 2D1 (Neat [293T]) further served as negative binding controls.\nNeat and diluted hybridoma supernatants were then tested for the ability of their antibodies to bind to such cells or to control […] HEK293 cells. After washing, bound antibody was detected with allophycocyanin (APC)-conjugated, anti-mouse antibodies and the mean fluorescent intensity of the cells was determined (FIG. 3)."}, "human B7-H4Ig (B7-H4hIg)": {"molecular_target": "T4, human B7-H4Ig (B7-H4hIg) (human, UniProt Q7Z7D3 25-259)", "T4 construct": "also called B7-H4Ig construct; not shown: Ig (Fc) part of the 'hIg' construct", "T4 sequence": "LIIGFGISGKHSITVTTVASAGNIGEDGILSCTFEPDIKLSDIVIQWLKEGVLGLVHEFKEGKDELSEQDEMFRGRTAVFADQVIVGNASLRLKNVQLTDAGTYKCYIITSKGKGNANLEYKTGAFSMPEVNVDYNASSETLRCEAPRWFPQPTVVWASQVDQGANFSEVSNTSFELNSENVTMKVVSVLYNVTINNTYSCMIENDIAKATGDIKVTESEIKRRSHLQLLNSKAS", "experiment": "plate-based ELISA, hybridoma supernatant on coated B7-H4hIg", "experimental": "as §1, §2"}}}
{"binder": "recombinant chimeric anti-B7-H4 antibody 2H9 (2H9 heavy chain / 2H9 light chain, human IgG4 S228P) (antibody, V domains shown, tested as CHO conditioned medium; also called 2H9 HC + 2H9 LC) VH: EVQLVESGGNLVKPGGSLKLSCAASGFTFSNSAMSWVRQTPEKRLEWVATISDGGRYTYYPDNVKGRFTISRDNAKNNLYLQMSHLKSEDTALYYCARDRPHWYFDVWGTGATVTVSS VL: DIVLTQSPASLAVSLGQRATISCRASESIDNYGISFMHWYQQKPGQPPKLLIYRASNLESGIPARFSGSGSRTDFTLTINPVETDDVATYFCQQSDEGRTFGGGTKLEIKR", "values": [{"measurement": "OD650", "setting": "[1]", "result": 1.15, "unit": "OD650"}]}
{"binder": "anti-human B7-H4 antibody 2H9 (murine hybridoma clone) (antibody, IgG1, V domains shown, Mouse hybridoma antibody tested as hybridoma supernatant; IgG1-producing clone; also called Anti-Human B7-H4 Clone 2H9) VH: EVQLVESGGNLVKPGGSLKLSCAASGFTFSNSAMSWVRQTPEKRLEWVATISDGGRYTYYPDNVKGRFTISRDNAKNNLYLQMSHLKSEDTALYYCARDRPHWYFDVWGTGATVTVSS VL: DIVLTQSPASLAVSLGQRATISCRASESIDNYGISFMHWYQQKPGQPPKLLIYRASNLESGIPARFSGSGSRTDFTLTINPVETDDVATYFCQQSDEGRTFGGGTKLEIK", "values": [{"measurement": "binding result", "setting": "[2]", "result": "no binding"}]}
{"binder": "recombinant chimeric anti-B7-H4 antibody 2D1 (2D1 heavy chain / 2D1 light chain, human IgG4 S228P) (antibody, V domains shown, tested as CHO conditioned medium; also called 2D1 HC + 2D1 LC) VH: EVQLVESGGGLVKPGGSLKLSCAASGFTFNSHGMSWVRQTPEKRLDWVATISDGGTYTYYPVNVKGRFTISRDNAKNNLYLQMSHLKSEDTAMYYCARDGGGGAYWGQGTLVTVSA VL: DVVMTQTPLSLPVSLGDQASISCRSSHSLVHSNGNTYLHWYLQKPGQSPNLLIYIVSNRFSGVPDRFSGSGSGTDFTLKISRVEAEDLGVYFCSQSTHVPPTFGAGTKLELKR", "values": [{"measurement": "OD650", "setting": "[1]", "result": 1.12, "unit": "OD650"}]}
{"binder": "recombinant antibody of 2D1 heavy chain and 2H9 light chain (human IgG4 S228P) (antibody, V domains shown, Mixed-chain combination tested as CHO conditioned medium; also called 2D1 HC + 2H9 LC) VH: EVQLVESGGGLVKPGGSLKLSCAASGFTFNSHGMSWVRQTPEKRLDWVATISDGGTYTYYPVNVKGRFTISRDNAKNNLYLQMSHLKSEDTAMYYCARDGGGGAYWGQGTLVTVSA VL: DIVLTQSPASLAVSLGQRATISCRASESIDNYGISFMHWYQQKPGQPPKLLIYRASNLESGIPARFSGSGSRTDFTLTINPVETDDVATYFCQQSDEGRTFGGGTKLEIKR", "values": [{"measurement": "binding result", "setting": "[3]", "result": "no binding"}, {"measurement": "OD650", "setting": "[1]", "result": 0.06, "unit": "OD650"}]}
{"binder": "anti-human B7-H4 antibody 2D1 (murine hybridoma clone) (antibody, IgG2, V domains shown, Mouse hybridoma antibody tested as hybridoma supernatant; also called Anti-Human B7-H4 Clone 2D1) VH: EVQLVESGGGLVKPGGSLKLSCAASGFTFNSHGMSWVRQTPEKRLDWVATISDGGTYTYYPVNVKGRFTISRDNAKNNLYLQMSHLKSEDTAMYYCARDGGGGAYWGQGTLVTVSA VL: DVVMTQTPLSLPVSLGDQASISCRSSHSLVHSNGNTYLHWYLQKPGQSPNLLIYIVSNRFSGVPDRFSGSGSGTDFTLKISRVEAEDLGVYFCSQSTHVPPTFGAGTKLELK", "values": [{"measurement": "binding result", "setting": "[2]", "result": "no binding"}]}
{"binder": "recombinant antibody of 2H9 heavy chain and 2D1 light chain (human IgG4 S228P) (antibody, V domains shown, Mixed-chain combination tested as CHO conditioned medium; also called 2H9 HC + 2D1 LC) VH: EVQLVESGGNLVKPGGSLKLSCAASGFTFSNSAMSWVRQTPEKRLEWVATISDGGRYTYYPDNVKGRFTISRDNAKNNLYLQMSHLKSEDTALYYCARDRPHWYFDVWGTGATVTVSS VL: DVVMTQTPLSLPVSLGDQASISCRSSHSLVHSNGNTYLHWYLQKPGQSPNLLIYIVSNRFSGVPDRFSGSGSGTDFTLKISRVEAEDLGVYFCSQSTHVPPTFGAGTKLELKR", "values": [{"measurement": "binding result", "setting": "[3]", "result": "no binding"}, {"measurement": "OD650", "setting": "[1]", "result": 0.02, "unit": "OD650"}]}
{"binder": "anti-human B7-H4 antibody 2E11 (murine hybridoma clone) (antibody, IgG1, V domains shown, Mouse hybridoma antibody tested as hybridoma supernatant; IgG1-producing clone; also called Anti-Human B7-H4 Clone 2E11) VH: EVKLVESEGGLVQPGSSMKLSCTASGFKFTDYYMAWVRQVPEKGLEWVANINYDGSSTYYLDSLKSRFIISRDNAKNILYLQMNSLKSEDTATYYCARKGYFDYWGQGTTLTVSS VL: DIVMSQSPSSLAVSVGEKVTVSCKSSQSLLYSTNQRTYLAWFQQKPGQSPKLLIYWASTRESGVPDRFTGSGSGTDFTLTISSVKAEDLAVYYCQQYYNYPLTFGTGTKLELK", "values": [{"measurement": "binding result", "setting": "[4]", "result": "binds"}, {"measurement": "binding result", "setting": "[2]", "result": "no binding"}, {"measurement": "binding result", "setting": "human B7-H4Ig (B7-H4hIg)", "result": "binds"}]}
